Experimental data reported in a protein production outcome set (Wang et al. 2014).

Experiment: label from the status in PepcDB records
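Note: failed if final PepcDB status was selected cloned or expressed and not failed if soluble or beyond.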

Row | Sequence | protein production
1 | MLDLAAPFFLLLLPLPFLVRRFLPPHAAQEGALYLPEAFAAAARPTSAFARSERWEGALRAILWLALVLALAGPERLKAVPDLSASGREIVLTLDMSGSMLIEDFDIDGVQSTRLEAVKRVARSFVEERQGDRIGLVLFANRAYVAAPLTFDLAAVGRAIEEASIGITGRSTAIADGLGLALKSVTESSAASRVIVLLSDGQDNAHQIDARQVAGLAARHGVRIHTIALGPDDLETRPAARDAVDTATLRAIAEASGGRSYRVRGMEDLRAMAADLDRLEPNPAERPPVLVPEPLWPWPALLALGAALVLGLRRAGLAPWPRRAGRAA | failed
2 | MLDLNPNQSYIIRINKKGGINMHWLADLLAAIGVVLNGIPQGIMAMSLGFAVFPTAFSFGLVGLINGVASSVAPVSFQAESLALVGHLGHDLRERSSIIFLGASLMFVIGLTGTLPLIVHSLGNQLMAAMMAGVGLMLAKIALQMAHEQPQFGWLSIGLAGVTYLISKDLVWTIAVSVIGTSCYAATTHYRVALPEHVTTRKLQFVRPQFSFKILRGALSLACLNIGANLSYGLITGQMTGQHPNPVNLNLLTSSQALADLGTSLLGGAPVETIISATASAPEPVIAGILMMLIMMLILLLGWLPKLGKVVPSTAIAGFLFILGTIVIFPENATTALHGSLSTVAGVTLVVTALVDPFAGLMTGALLKFGLPLIGLGL | failed
3 | MLDLVAAFIALTTLLTYVNYRFIRLPPTIGVMATALVFSLIVQGLSELGYPILEVEMQEIIRRIDFSEVLMTWFLPALLFAGALHVDLSDLRSYKWPIGLLATAGVLIATFVIGGLAYYTFPLFGWQVDFIYCLLFGALISPTDPIAVLGILKSAGAPKPLATTIVGESLFNDGTAVVVFAIILGILQLGEAPTVSATAILFVQEAIGGVVFGAVLGYGVFVMMRGIDQYQVEVMLTLALVIGGAALAARLHVSAPIAMVVAGLIIGNHGRHYAMSDETRRYVDKFWELIDEILNALLFALIGLELLLLPFSWLHVAAAFALGGAVLVSRLLTVGPAILVLRRFRGANRQVPAGTIRILVWGGLRGGVSVALALSLPLGPERDLILSLTYIVVLVSILLQGLSIGPLVRRIYAGQPLEKSEGAH | failed
4 | MLDLVSSKTTPVFSLVAFAVIHSLTASLPFKRMVMKAAGPRAEKLYLPAYSLVAVLTVLPLAYQLYKNPGRILYKIPSPWRWLMVGGQVIAGILAPMAFWNAPHRFKIRSQLSGPQASEEGSLKIKGIYRWVRDPFLLSGLVVMLLTPFMTVNLLIVYLLTTVYLFLGSLHWETRLVAQFGDEYREYQKKVHRIIPELKGSVKNPGDKASE | failed
5 | MLDPARGYDLIGDVHGCAHTLEHLLELLGYRLQAGVWRHPERIAIFLGDIIDRGPRIRESLHIVRDMVQAGQAYCIMGNHEFNALGWMTPALPESGHLFVREHTPRHARLIGETLAQFEAYPDEWNEFVNWFYELPLYIDAGRFRVVHACWDATLIDPLRGLHGTGCIDRHFVQASAVPGSFASNVFNRLLRGTDMRLPHGLTLTGGDGLTREFFRTKFWEDNPQTYGDVVFQPDALPEGVAKTPLSTSEKNALLRYGSNEPLLFVGHYWRSGIPAPIRPNLACLDYSAVLYGKLVAYRLDQETHVDPDKFVWVDVQRPEVSP | failed
6 | MLDPARSFDIIGDVHGCALTLERLLDALGYKRVAGVWRHPRRQALFLGDIVDRGPRIREALHIVHDMVEAGQAFCIMGNHEYNALGWVTPALPGSGKAYVREHTPRHARLIDETLTQFAQHPGDWHDFVNWFYQLPLFIDAGRFRLVHACWDPRLIEPLRQQYPDGRIDEHFIQASAVSGSFADTVCNRLLRGTDMRLPDGLTLTGGDGLTRAFFRTKFWEEDPKTYGDIVFQPDALPEEVASTPLSHSQKNALLRYDEDQPMLFVGHYWRSGRPAPIRANLACLDYSAVLYGKLVAYRLDDETRIDPHKFVWVDVDRPQANQLEHHHHHH | not failed
7 | MLDPYRRYRHARLIHAVRVALGLIATILLTTGLNLPHGEWASVTMLVVIGGLQHHGNIGKKAAERAIGTLVGAGVGLVLVVQQAYFGHPWLTYLGMSVVCGYFSYHAIGKGGYTALLAAITVFIVAGHGDNQVSDGLWRAVDILIGIALALAFSFAIPLYAVYSWRYNLASALRDCAQLYGRIIKGQSVTDDEHLKLLGRVNSAMLQLRSLMPSVSKEVRISMTELDAIQRNLRMCISTLEILGNTRPDASDPQAMAQMQLALKAEHRQIRVQLIGMARALQSGVTQRLEKSVEGHPENALEAPVYSALDGYRLLTRQLAATLGEMHQRLAKSARHWKI | failed
8 | MLDRLRFPHPWLSLTLFVMWQFLSDGISGGSIVLGLILAWIIPLMTQGFWPDPPTLLKAWKTPAYLLRVLWDIVVASVDVARLILSPRAPRPMFICYTLELTDPLAISILASTISLTPGTVSADVSDDNTLLLIHALDAEDEQEVIDTIRNRYEKPLLEMFQ | failed
9 | MLDSAQLIFDLQKVNTTSKRISGCLDTTAITKEITEALIHDFHCVFARIWLTEPDGASLKLVASSGLHTSTNGSFARVPMGAYKVGKIAQSCIPFLSNHLANETWVKDRDWAIANNIRGFAGYPLVGHDRVIGVLAVFSEAPFVAEFLEVLQVLCMAVAIAIDAVRQLQSETNTINTTQFLDDQIP | failed
10 | MLEATNTPSKTEEPAAPVNPALAAEAKIARIAVTVFPLLVVVAGVLGFLIPDLFKPMGVAVPYLLGVIMFCMGLTLTPPDFASVARRPWAVALGIVAHYVIMPGAGWLIAVLLQLPPELAVGLILVGCAPSGTASNVMAFLAKGDVALSVAVASVSTLIAPIVTPTLTLFLAGSFLHIDAGAMVMDIVKTVLLPVIAGLLARLFLSKLVAKVLPALPWASAVVISLIVAIVVAGSASKIVAAGAIVFLAVVLHNGFGLGLGYLAGKLGRLDDKARRALAFEVGMQNSGLAATLATAHFSPLAALPSAVFSLWHNISGAIVAAWLARRPLKD | failed
11 | MLEEYRKHVAERAAEGIAPKPLDANQMAALVELLKNPPAGEEEFLLDLLTNRVPPGVDEAAYVKAGFLAAIAKGEAKSPLLTPEKAIELLGTMQGGYNIHPLIDALDDAKLAPIAAKALSHTLLMFDNFYDVEEKAKAGNEYAKQVMQSWADAEWFLNRPALAEKLTVTVFKVTGETNTDDLSPAPDAWSRPDIPLHALAMLKNAREGIEPDQPGVVGPIKQIEALQQKGFPLAYVGDVVGTGSSRKSATNSVLWFMGDDIPHVPNKRGGGLCLGGKIAPIFFNTMEDAGALPIEVDVSNLNMGDVIDVYPYKGEVRNHETGELLATFELKTDVLIDEVRAGGRIPLIIGRGLTTKAREALGLPHSDVFRQAKDVAESDRGFSLAQKMVGRACGVKGIRPGAYCEPKMTSVGSQDTTGPMTRDELKDLACLGFSADLVMQSFCHTAAYPKPVDVNTHHTLPDFIMNRGGVSLRPGDGVIHSWLNRMLLPDTVGTGGDSHTRFPIGISFPAGSGLVAFAAATGVMPLDMPESVLVRFKGKMQPGITLRDLVHAIPLYAIKQGLLTVEKKGKKNIFSGRILEIEGLPDLKVEQAFELTDASAERSAAGCTIKLNKEPIIEYLNSNIVLLKWMIAEGYGDRRTLERRIQGMEKWLANPELLEADADAEYAAVIDIDLADIKEPILCAPNDPDDARPLSAVQGEKIDEVFIGSCMTNIGHFRAAGKLLDAHKGQLPTRLWVAPPTRMDAAQLTEEGYYSVFGKSGARIEIPGCSLCMGNQARVADGATVVSTSTRNFPNRLGTGANVFLASAELAAVAALIGKLPTPEEYQTYVAQVDKTAVDTYRYLNFNQLSQYTEKADGVIFQTAV | not failed
12 | MLEIIQKTLTDNAIIGAIFSSIAIIFLGFYIRKRNILTGAASKILTKVVLTVAIPALAFTSFMKDINQKELHEGINILIWGFVIYILLIVLTKFIFARVKGDKQDVFRVLTIFGSTTFFGVPIVKAVYGSVGAMYSSIFNIAYRVFLYSYGYIKMSGVKMDKENLKKNLKEMLLNPVIIATFLGLFIWLFQGMLPQVQIGDKSYAFLRIDQTLPWLYKPLTYLDKLCSPLAWLAIGITLAEVPFKQAVGQKEPWVYSLIKIILVPVINLGLLVVLNKTGILPVSFEGMATTVIMLATPTATVAAAYAISFDKEALLTSNCSLLSTVVAVVAMPFWIVILQIIKNIGLFA | failed
13 | MLEINKIHQMNCFDFLDQVENKSVQLAVIDPPYNLSKADWDSFDSHNEFLPFTYRWIDKVLDKLDKDGSLYIFNTPFNCAFICQYLVSKGMIFQNWITWDKRDGMGSAKRGFSTGQETILFFSKSKNHTFNYDEVRVPYESTDRIKHASEKGILKNGKRWFPNPNGRLCGEVWHFSSQRHKEKVNGKTVKLTHITPKPRDLIERIIRASSNPNDLVLDCFMGSGTTAIVAKKLGRNFIGCDMNAEYVNQANFVLNQLEIN | not failed
14 | MLEKSLAILFALLILATLINRFLVWRLPERKGDEVTLRIRTWWGIVICFSLVISGPRWMTLTFFALISFLALKEYCTLISVHFPRWLYWVIPLNYLLIGFNCFELFLLFIPLAGFLILATWRVFVGDPSGFLHTVSAIFCGWIMTVFTLSHAAWLLMLPTINIQGGALLVLFLLALTESNDIAQYLWGKSCGRRKVVPKVSPGKTLEGLVGGVITTMIASLIIGPLLTPLNTLQVLLAGLLIGISGFCGDVVMSATKRDVGVKDSGKLLPGHGGLLDRIDSLIFTAPVFFYFIRYCCY | failed
15 | MLEQIFILLIALVVLVWSADKFVFGASSLARNLGISPMIIGLTIVAMGSSAPEMMVAATASMQGNPDTAIGNAIGSNITNIALVLGITALLQPLTVSSQTIKREIPLILAVTALGYWLLFDNHFSFIEGIILISGFAIYIITLLVITLKKTRGKPSDDPLIIEAEQDVAAAVSMKLSLIWLGVGIILLPLSASFLVDSSVYIAKAYGISDLVIGLTIIAIGTSLPELAASIMSIIKKEDDLALGNIIGSNIFNILAVLPIAGLIAPGNIDALAASRDAPYMLGITLLLFILCFSRRLGAFRITRAKGALLLLSFIAYQVLLFSQLS | failed
16 | MLERIANIQKKLSKSIVERKINEVRKVAAVDVSYKEEKARAALVITTFPEGEVLKTKVIETTVSFPYIPTFFFLRETKPILIATKGETFDVLIVEGHGKAHPRGYGLASHIGVVLRKPTIGVAKRLLKNTPKDTYKKVGKVYVSVGNLITLEDATKIIRAILDESGYPKPLKLADKLSKGRIYEVKNTPSPNRSRKKRGNRGKDNNNSQGNLEHHHHHH | failed
17 | MLETLHLTPLDRWIDAWLAHQRALGRAYDNEGWILGHLRRFIVSSEAGDLDQKGFDRWCASLRHLSPTTRRGRQFVVRKLCLFRRRAEPGCFVPDSIYFARKLPYRRPVILEPAQVSRMLAAADGLAPTTNSPLLPAVMRLATIILYTAGLRRGELARLTLDDVEPQSGLLRIRQSKFHKSRLVPLSPDAAGALRTYLHLRLAPSFNADPSSALLCCGRAGRRGYTGAGLGQAINRLFVTADVRDSEGRLPRVHDIRHSFGVQALIRWYRAGADVQSCLPSLAIYMGHVSVVSTAHYLHFVPTMRELASSRFEAAFGNIVVEAKP | failed
18 | MLFAAEGGGFFSSSASGYSNGLALLLLGQKTEQKPIKVSSQWNHYHLVLEDSDTGFRLDSSKNWLSSACTSLICFGRKSERLESEGKKDEAPSVEDYNNCEVTNRFALKSSLKKRSFSDVVIGDDDVSRDGVVDHIDRRKVQWPDTCGIEIAEVREFEPRYGCFLL | failed
19 | MLFEASLVAVWAFFCGIDKYDVALNIHRPLITGPVVGLIMGDMQIGLIAGATLELAWLGLVPNAGAQPPDVTMGTIAAVAFAVMTGQSPEVAMGVGMPIAVLMQMLVIGFFAMTSFTMGKADKYAEEANTNGIDFLLLSTITMRSMLYAVIAFLTVYFGEHGAAWIDANAPKTLLEGLGIGAKMVPAIGFAMLLKIMWSKEVAGVFFIGFVMTTYLQLPIMAVAILGASAAALYYFFSGNGNKNSNQEFEDFEDGI | failed
